Data as given in paper PMC2836553.
Read-outs that look alike come from different tables or passages of the source.

Key:
Test in all cases: FRET
[1] = molecular target: T1, XPF-Δnuc (HhH2 domain) (Sulfolobus solfataricus P2, UniProt Q7LXL5 =M+148-233, internal_change)
T1 sequence: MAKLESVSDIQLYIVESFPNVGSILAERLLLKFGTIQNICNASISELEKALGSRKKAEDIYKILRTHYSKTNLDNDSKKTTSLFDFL

[2] = molecular target: T2, XPF-wt (Saccharolobus (Sulfolobus) solfataricus, UniProt Q7LXL5 1-233)
T2 sequence: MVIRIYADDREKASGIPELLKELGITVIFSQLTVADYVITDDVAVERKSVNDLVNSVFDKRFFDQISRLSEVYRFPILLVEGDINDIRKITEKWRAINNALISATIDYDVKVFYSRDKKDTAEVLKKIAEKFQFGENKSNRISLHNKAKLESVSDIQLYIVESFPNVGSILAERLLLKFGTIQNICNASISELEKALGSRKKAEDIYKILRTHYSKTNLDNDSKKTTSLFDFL

[3] = molecular target: T3, XPF-wt;PCNA heterotrimer (Saccharolobus (Sulfolobus) …, UniProt Q7LXL5;P57766;Q97Z84;P57765 1-233;1-249;1-245;1-244, |)
T3 sequence 1: T2 sequence
T3 sequence 2: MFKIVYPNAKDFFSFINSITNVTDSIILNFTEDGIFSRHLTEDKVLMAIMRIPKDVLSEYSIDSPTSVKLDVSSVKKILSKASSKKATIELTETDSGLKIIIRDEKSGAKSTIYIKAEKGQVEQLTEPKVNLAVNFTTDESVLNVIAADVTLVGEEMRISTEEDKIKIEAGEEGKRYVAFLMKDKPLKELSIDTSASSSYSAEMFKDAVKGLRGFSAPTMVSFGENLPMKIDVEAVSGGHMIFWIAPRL
T3 sequence 3: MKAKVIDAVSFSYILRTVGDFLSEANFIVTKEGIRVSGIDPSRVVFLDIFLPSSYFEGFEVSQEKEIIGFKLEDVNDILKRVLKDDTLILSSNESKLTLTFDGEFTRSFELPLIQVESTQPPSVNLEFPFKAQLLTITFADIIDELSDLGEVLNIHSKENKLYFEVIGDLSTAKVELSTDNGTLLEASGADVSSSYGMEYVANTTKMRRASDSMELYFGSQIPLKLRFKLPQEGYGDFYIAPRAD
T3 sequence 4: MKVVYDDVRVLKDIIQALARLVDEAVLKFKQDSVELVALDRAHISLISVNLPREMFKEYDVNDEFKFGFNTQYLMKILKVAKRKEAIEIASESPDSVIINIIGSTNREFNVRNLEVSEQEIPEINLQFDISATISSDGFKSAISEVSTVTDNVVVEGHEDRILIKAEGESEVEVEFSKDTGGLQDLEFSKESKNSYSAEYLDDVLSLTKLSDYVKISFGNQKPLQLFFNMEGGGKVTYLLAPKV

[4] = molecular target: T4, XPF-Δnuc (HhH2 domain);PCNA heterotrimer (Sulfolobus solfataricus P2;Sulfolobus …, UniProt Q7LXL5;P57766;Q97Z84;P57765 =M+148-233;1-249;1-245;1-244, internal_change|)
T4 sequence 1: T1 sequence
T4 sequence 2: T3 sequence 2
T4 sequence 3: T3 sequence 3
T4 sequence 4: T3 sequence 4

[5] = molecular target: T5, XPF-ΔPIP (Δ6 XPF) (Sulfolobus solfataricus, UniProt Q7LXL5 1-227)
T5 sequence: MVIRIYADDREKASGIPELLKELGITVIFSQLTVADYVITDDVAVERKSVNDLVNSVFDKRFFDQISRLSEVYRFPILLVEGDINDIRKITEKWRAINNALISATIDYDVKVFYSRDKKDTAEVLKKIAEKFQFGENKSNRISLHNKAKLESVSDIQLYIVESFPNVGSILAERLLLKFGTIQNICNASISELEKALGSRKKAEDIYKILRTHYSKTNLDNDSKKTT

[6] = molecular target: T2, XPF-wt; remark: listed apart in the source
[7] = molecular target: T5, XPF-ΔPIP (Δ6 XPF); remark: listed apart in the source
[8] = molecular target: T5, XPF-ΔPIP (Δ6 XPF); remark: listed apart in the source
[9] = molecular target: T3, XPF-wt;PCNA heterotrimer; remark: listed apart in the source
[10] = molecular target: T1, XPF-Δnuc (HhH2 domain); remark: listed apart in the source

B1: 3' flap, three vectors (global fit) (structured_DNA)
DNA 1: AGCCCGACAGCAGTCAGAGCTTGCTAGGACGGACGGT
DNA 2: ACCGTCCGTCCTAGCAAGCATTTTTTT
DNA 3: TCTGACTGCTGTCGGGCT
modifications: dye positions as in Flap-12, Flap-13 and Flap-23
Binder B1 has a Kd [1] of 8 ± 1 µM, a Kd [2] of 5.3 ± 0.6 µM and a Kd [3] of 0.06 ± 0.01 µM. It also gave a Kd [4] of 0.11 ± 0.01 µM and a Kd [5] of 3.1 ± 0.5 µM.

B2: Flap-23 (structured_DNA)
DNA 1: B1 DNA 1
DNA 2: ACCGTCCGTCCTAGCAAGCATTTTTTT
DNA 3: TCTGACTGCTGTCGGGCT
modifications: 3' Cy3 on B strand; internal fluorescein-dT at T10 of C strand
With B2 the Kd [6] was 5 ± 0.6 µM, the Kd [7] was 1.6 ± 0.2 µM and the Kd [8] was 1.8 ± 0.3 µM. The Kd [9] was 0.05 ± 0.01 µM.

B3: Flap-12 (structured_DNA)
DNA 1: B1 DNA 1
DNA 2: ACCGTCCGTCCTAGCAAGCATTTTTTT
DNA 3: TCTGACTGCTGTCGGGCT
modifications: internal fluorescein-dT at T9 of B strand; 3' amino modifier on B strand
Binder B3 has a Kd [6] of 2.6 ± 0.4 µM and a Kd [8] of 1.6 ± 0.6 µM.

B4: Flap-13 (structured_DNA)
DNA 1: B1 DNA 1
DNA 2: ACCGTCCGTCCTAGCAAGCATTTTTTT
DNA 3: TCTGACTGCTGTCGGGCT
modifications: amino-C6-dT at T9 of B strand; internal fluorescein-dT at T10 of C strand
With B4 the Kd [10] was 8 ± 2 µM, the Kd [6] was 9.2 ± 3 µM and the Kd [9] was 0.06 ± 0.01 µM.
